The values that follow are results of earlier work, collected in article PMC3103538.

Among the targets are Cterm32 (UniProt position 280, KKLVGER----); Lys3 (UniProt position 251, KLQSMKQLEDK); Lys27 (UniProt position 275, EVARLKKLVGE); Lys28 (UniProt position 276, VARLKKLVGER); Nterm0 (UniProt position 248, RARKLQRMKQL); His18 (UniProt position 266, LSKNYHLENEV); Glu6 (UniProt position 254, SMKQLEDKVEE); Glu32 (UniProt position 280, KKLVGER----); Glu22 (UniProt position 270, YHLENEVARLK); Glu11 (UniProt position 259, EDKVEELLSKN); Glu10 (UniProt position 258, LEDKVEELLSK); Lys8 (UniProt position 256, KQLEDKVEELL); Tyr17 (UniProt position 265, LLSKNYHLENE); Lys15 (UniProt position 263, EELLSKNYHLE); Asp7 (UniProt position 255, MKQLEDKVEEL); Glu20 (UniProt position 268, KNYHLENEVAR).

Turning to “GCN4 leucine zipper (33-residue fragment, GCN4p1-type) (Saccharomyces cerevisiae; R1S; insertion of Gly0 before residue 1 (Arg1 substituted by the dipeptide Gly0-Ser1))”, the pKa in the data set with Cterm32 is recorded as 4.03; with Lys3 it was 10.78; with Lys27, 11.1; in the data set with Lys28, 10.64; in the data set with Nterm0, 7.88; in the data set with His18, 6.24. Besides, the pKa is reported as 4.6 with Glu6; 4.62 in the data set with Glu32; 4.2 with Glu22; 4.05 in the data set with Glu11; 3.94 with Glu10; 11.26 with Lys8. Also, the pKa in the data set with Tyr17 was 9.82; in the data set with Lys15 it was 10.62; with Asp7 it was 3.48; with Glu20, 4.38.

Usually pKa stands for the pH at which an ionisable group is half protonated.
